The record followed here is US11505586B2, “Interaction of Draxin and γ-netrins” (Max-Planck-Gesellschaft zur Foerderung der Wissenschaften …, priority 2014, dated 2022).

One experiment deals with Netrin receptors. Nature of the experiment: AVEXIS direct binding to Netrin receptors. Also noted: species or system zebrafish. The settings on record: AVEXIS platform. An excerpt: By using an AVEXIS-based competition assay (FIG. 6 A) we tested whether the binding of DraxinA to Netrin1a has an influence on Netrins ability to bind to Netrin receptors. First we confirmed that we reliably detected the binding of Netrin1a to Netrin receptors of the DCC/Neo1 and Unc5 families with the AVEXIS method. We also tested whether Draxin is able to bind to the corresponding Netrin receptors. […] This has also been confirmed by a recent publication (Haddick et al. 2014). In the competition assay the extracellular domains (ECDs) of Netrin receptors have been used as prey proteins together with purified full length DraxinA and probed for binding against Netrin1a bait proteins. […] The inhibition is specific for DraxinA.

Another experiment addresses T1, recombinant human UNC5B (Homo sapiens, UniProt Q8IZJ1).
T1 construct: made in house; host or cells: HEK293-6E
In words: Surface Plasmon Resonance. It counts as binding. Particulars: Biacore 3000, Draxin 0-18.8 nM. On the procedure: (§1) Surface Plasmon Resonance (SPR) experiments were performed on a Biacore 3000 (GE Healthcare) at 25° C. using a SA sensor chip in 0.01 M HEPES, pH 7.4, 0.15 M NaCl, 0.005% Surfactant P20 (HBS-P) running buffer at a flow rate of 30 μl/min. The instrument was used according to manufacturer's instructions.
(§2) Recombinant human Draxin was purchased from R&D systems. Biotinylated recombinant human UNC5B, Netrin1 and DCC were produced recombinantly using the described mammalian expression system (HEK293-6E). Biotinylated proteins were immobilised on the SA coated sensor chip and Draxin was injected sequentially in increasing concentrations (0 nM, 1.2 nM. 2.3 nM, 4.7 nM, 9.4 nM, 18.8 nM) for 3 min. […] No binding of Draxin to UNC5B and DCC was detected (FIG. 14).
In general terms: In SPR one partner is held on a chip, and binding of the other changes the refractive index at the surface.

For another experiment, the target named is T2, recombinant human DCC (Homo sapiens, UniProt P43146).
T2 construct: made in house; host or cells: HEK293-6E
In words: Surface Plasmon Resonance. It counts as binding. Particulars: Biacore 3000, Draxin 0-18.8 nM. How it is done:
as §1, §2

T2 sequence (P43146 26-1097 limits assumed): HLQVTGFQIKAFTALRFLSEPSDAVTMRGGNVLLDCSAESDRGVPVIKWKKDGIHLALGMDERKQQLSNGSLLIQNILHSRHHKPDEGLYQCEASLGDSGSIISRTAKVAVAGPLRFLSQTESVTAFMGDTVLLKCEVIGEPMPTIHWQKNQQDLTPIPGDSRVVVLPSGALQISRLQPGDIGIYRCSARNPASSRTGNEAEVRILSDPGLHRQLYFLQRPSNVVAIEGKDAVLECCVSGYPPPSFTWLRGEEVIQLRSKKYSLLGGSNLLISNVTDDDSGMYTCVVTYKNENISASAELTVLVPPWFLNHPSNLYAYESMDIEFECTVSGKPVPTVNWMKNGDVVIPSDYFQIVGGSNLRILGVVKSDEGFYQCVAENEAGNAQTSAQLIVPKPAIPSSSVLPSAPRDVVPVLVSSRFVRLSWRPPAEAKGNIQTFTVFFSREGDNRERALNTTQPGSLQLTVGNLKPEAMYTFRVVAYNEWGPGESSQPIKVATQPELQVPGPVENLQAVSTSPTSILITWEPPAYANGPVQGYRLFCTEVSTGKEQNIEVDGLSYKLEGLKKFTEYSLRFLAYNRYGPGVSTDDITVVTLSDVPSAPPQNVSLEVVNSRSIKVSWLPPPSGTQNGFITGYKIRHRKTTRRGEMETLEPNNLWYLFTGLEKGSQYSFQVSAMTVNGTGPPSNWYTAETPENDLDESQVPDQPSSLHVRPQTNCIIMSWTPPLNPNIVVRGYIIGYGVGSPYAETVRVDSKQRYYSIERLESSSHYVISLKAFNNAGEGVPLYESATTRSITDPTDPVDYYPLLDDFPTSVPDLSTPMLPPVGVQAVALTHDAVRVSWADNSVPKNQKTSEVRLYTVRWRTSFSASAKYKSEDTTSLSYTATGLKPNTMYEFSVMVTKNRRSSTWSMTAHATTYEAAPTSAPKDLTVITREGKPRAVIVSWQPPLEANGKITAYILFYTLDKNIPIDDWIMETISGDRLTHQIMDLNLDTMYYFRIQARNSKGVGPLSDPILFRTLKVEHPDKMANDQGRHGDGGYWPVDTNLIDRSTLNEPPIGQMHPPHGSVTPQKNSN

B1: Draxin: Recombinant human Draxin purchased from R&D systems (protein, listed as Homo sapiens)
chain: MAGPAIHTAPMLFLVLLLPLELSLAGALAPGTPARNLPENHIDLPGPALWTPQASHHRRRGPGKKEWGPGLPSQAQDGAVVTATRQASRLPEAEGLLPEQSPAGLLQDKDLLLGLALPYPEKENRPPGWERTRKRSREHKRRRDRLRLHQGRALVRGPSSLMKKAELSEAQVLDAAMEESSTSLAPTMFFLTTFEAAPATEESLILPVTSLRPQQAQPRSDGEVMPTLDMALFDWTDYEDLKPDGWPSAKKKEKHRGKLSSDGNETSPAEGEPCDHHQDCLPGTCCDLREHLCTPHNRGLNNKCFDDCMCVEGLRCYAKFHRNRRVTRRKGRCVEPETANGDQGSFINV
For the molecule B1, the “direct binding to Netrin receptors” value in the experiment on Netrin receptors is reported as “not able to detect direct binding”. Further, the “binding to immobilised UNC5B” value with recombinant human UNC5B is recorded as “No binding”. In addition, in the experiment with recombinant human DCC, the “binding to immobilised DCC” value is listed as “No binding”.
